The values that follow come from PMC11275989, “Molecular Basis for the Calcium-Dependent Activation of the Ribonuclease EndoU”.

This data set has as its target T1, EndoU catalytic domain (human, UniProt P21128 135-410).
T1 sequence: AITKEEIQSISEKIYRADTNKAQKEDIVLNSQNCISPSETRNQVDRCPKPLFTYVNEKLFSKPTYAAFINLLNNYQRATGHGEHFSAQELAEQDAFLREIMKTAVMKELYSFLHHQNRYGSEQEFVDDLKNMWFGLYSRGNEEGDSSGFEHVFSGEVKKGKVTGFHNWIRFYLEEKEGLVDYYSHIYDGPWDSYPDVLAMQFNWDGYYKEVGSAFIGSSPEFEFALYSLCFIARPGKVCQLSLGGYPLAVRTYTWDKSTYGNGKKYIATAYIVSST
Put plainly: NMR; Ca2+ (calcium-activated EndoU); NMR: 10 mM Tris pH 7, 50 mM NaCl, 1 mM TCEP, 10% D2O, 35 C; EndoU 350 uM (Fig. 4). To be noted: protein: recombinant; tags: GB1-His6 removed by TEV; residual N-terminal GGSEFA; single strand.

With AAGUCC (XNA, 2'-F at all nucleotides (non-cleavable)) [2'-fluorinated RNA AAGUCC], the binding result is reported as “binds”. For the molecule UUUUUU (XNA, 2'-F) [2'F (U)6 RNA], the binding result was “binds”.
